Source: paper PMC4861216
Several values for one entry are separate records, joined by “and”; a condition that tells them apart may be missing. Equal values may be shown once.

Target: protamine-oligonucleotide nanoparticles (proticles) (salmon)
Assay: co-sedimentation

percent of added apoA-I bound (5 ug apoA-I/10 ug ON): 80%
stoichiometry N (apoA-I molecules per nanoparticle): 14000 and 15000
Substance: apolipoprotein A-I (from UniProt P02647 19-267) (natural protein)
